Experimental data: publication PMC8887137

Tested on: NSP12 (RNA-dependent RNA polymerase) (SARS-CoV-2)
Assay: filter binding
Conditions: 20 mM Tris, 200 mM KCl, room temperature, 1 h; pH not stated

NSP12 eCLIP peak RNA, region 7431-7555 (hairpin)
Kd: 17 nM
